Assay results taken from patent publication US12058986B2, “Method for generating a genetically modified pig with inactivated porcine endogenous retrovirus (PERV) elements” (eGenesis, Inc., priority 2017, dated 2024).

B1: SV40 large T antigen: transiently over-expressed inhibitor of both p53 and Rb pathways (protein, UniProt P03070 1-708, looked up)
Large T antigen: MDKVLNREESLQLMDLLGLERSAWGNIPLMRKAYLKKCKEFHPDKGGDEEKMKKMNTLYKKMEDGVKYAHQPDFGGFWDATEIPTYGTDEWEQWWNAFNEENLFCSEEMPSSDDEATADSQHSTPPKKKRKVEDPKDFPSELLSFLSHAVFSNRTLACFAIYTTKEKAALLYKKIMEKYSVTFISRHNSYNHNILFFLTPHRHRVSAINNYAQKLCTFSFLICKGVNKEYLMYSALTRDPFSVIEESLPGGLKEHDFNPEEAEETKQVSWKLVTEYAMETKCDDVLLLLGMYLEFQYSFEMCLKCIKKEQPSHYKYHEKHYANAAIFADSKNQKTICQQAVDTVLAKKRVDSLQLTREQMLTNRFNDLLDRMDIMFGSTGSADIEEWMAGVAWLHCLLPKMDSVVYDFLKCMVYNIPKKRYWLFKGPIDSGKTTLAAALLELCGGKALNVNLPLDRLNFELGVAIDQFLVVFEDVKGTGGESRDLPSGQGINNLDNLRDYLDGSVKVNLEKKHLNKRTQIFPPGIVTMNEYSVPKTLQARFVKQIDFRPKDYLKHCLERSEFLLEKRIIQSGIALLLMLIWYRPVAEFAQSIQSRIVEWKERLDKEFSLSVYQKMKFNVAMGIGVLDWLRNSDDDDEDSQENADKNEDGGEKNMEDSGHETGIDSQSQGSFQAPQSSQSVHDHNQPYHICRGFTCFKKPPTPPPEPET

Key:
PERV pol gene = experiment: PERV pol targeting (editing) efficiency in FFF3 cells, deep sequencing of PERV pol loci; assay type: cell-based, porcine; conditions: for average targeting efficiency (PERV editing efficiency) of FFF3 populations: applied during genetic modification with CRISPR-Cas9
Experimental: Similar to the procedure previously described by Yang et al, 2015, Science, 80:350, a DNA fragment encoding U6-gRNA1-U6-gRNA2 (Genewiz) was synthesized and incorporated into a previously constructed PiggyBac-cas9 plasmid. To establish the FFF3 cell lines with PiggyBac-Cas9/2gRNAs integration, 5×10^5 FFF3 cells were transfected with 16 μg PiggyBac-Cas9/2gRNAs plasmid and 4 μg Super PiggyBac Transposase plasmid (System Biosciences) using the Neon transfection system according to the instructions in the commercial kits (Thermo Fisher Scientific). To select the cells carrying the integrated construct, 2 μg/mL puromycin was applied to the transfected cells. Based on the negative control, in which puromycin was applied to wild type FFF3 cells, it was determined that the puromycin selection was completed in 4 days. The FFF3-PiggyBac cell line was maintained with 2 μg/mL puromycin hereafter and a 2 μg/ml doxycycline was applied to induce Cas9 expression of the doxycycline-inducible FFF3-PiggyBac cell line.
To avoid the Cas9-consistent expression in the FFF3 cell line, PiggyBac-Cas9/2gRNAs excision from the FFF3 genome was conducted by transfecting 5×10^5 cells with 3 μg PiggyBac Excision-Only Transposase vector using Lipofectamine 2000 reagent. The PiggyBac-Cas9/2gRNAs-excised FFF3 cells were then single-cell sorted into 96-well plates for clone growth and genotyping.
First, puromycin selection followed by PiggyBac excision was conducted on the FFF3, PiggyBac-Cas9/2gRNA cell line. Then the cells were single-cell sorted into both 96-well PCR plates for direct genotyping and 96-well cell culture plates for colony growth.
To genotype single FF cells without clonal expansion, the PERV loci from sorted single cells were directly amplified according to a previously reported single-cell genotyping protocol. Briefly, the single cells were sorted into 96-well PCR plates with each well carrying a 5 μl lysis mixture, which contained 0.51 μl 10×KAPA express extract buffer (KAPA Biosystems), 0.1 μl of 1 U/μl KAPA Express Extract Enzyme and 4.6 μl water. The lysis reaction was incubated at 75° C. for 15 min and the reaction was subsequently inactivated at 95° C. for 5 min. All reactions were then added to 20 μl PCR reactions containing 1×KAPA 2G fast (KAPA Biosystems), 0.2 μM PERV Illumina primers (Methods Table 2). Reactions were incubated at 95° C. for 3 min followed by 25 cycles of 95° C., 20 s; 59° C., 20 s and 72° C., 10 s. To add the Illumina sequence adaptors, 3 μl of reaction products were then added to 20 μl of PCR mix containing 1×KAPA 2G fast(KAPA Biosystems) and 0.3 μM primers carrying Illumina sequence adaptors. Reactions were incubated at 95° C. for 3 min followed by 10 cycles of 95° C., 20 s; 59° C., 20 s and 72° C., 10 s. PCR products were checked on EX 2% gels (Invitrogen), followed by the recovery of 300-400 bp products from the gel. These products were then mixed at roughly the same amount, purified (QIAquick Gel Extraction Kit), and sequenced with MiSeq Personal Sequencer (Illumina). Deep sequencing data was analyzed, and the PERV editing efficiency using CRISPR-GA was determined (Denner et al., 2016, Viruses, 8:215).
As previously described in Yang et al. (6), a custom pipeline was built to estimate the efficiency of PERV inactivation. Briefly, the pol gene was amplified and sequenced via Illumina Next Generation Sequencing using PE250 or PE300. First, the two overlapping reads using PEAR (15) were combined and mapped to the reference region using BLAT. After mapping, the reads were grouped into sets containing specific combinations of haplotypes, and indel types. Read sets with representation lower than 0.5% of the total number of mapped reads were discarded. Finally, the mapping output was parsed to call the different insertions and deletions, as described in Güell et al (16).

[1] = clones grown from sorted single cells

Row | Molecule | cytotoxicity (FFF3 cells) | PERV targeting efficiency among treatments with different dosages (PERV pol gene; FFF3 cells, seven days of treatment) | average targeting efficiency (PERV editing efficiency) of FFF3 populations (PERV pol gene) | increase of the ratio of >80% PERV-ko clones compared with the untreated group (PERV pol gene; [1]) [folds] | increase of the ratio of >90% PERV-ko clones compared with the untreated group (PERV pol gene; [1]) [folds]
1 | Bcl-2: an apoptosis inhibitor, over-expressed | Dose-dependent cytotoxicity | No significant difference | did not increase | – | –
2 | basic fibroblast growth factor [bFGF] | – | – | did not increased | – | –
3 | Cc1ccc(C(=O)Cn2c3c(sc2=N)CCCC3)cc1 [PFTα, pifithrin alpha, reference compound] | – | – | did not increased | – | –
4 | B1 | – | – | increased | 3.75 | 5.06
